# Test results reported in article PMC6720452, “Structural Basis for Recruitment of DAPK1 to the KLHL20 E3 Ligase” (Structure(London, England:1993), 2019).
# T1: KLHL20 Kelch domain (human, UniProt Q9Y2M5 303-605)
# T1 construct: Kelch domain of human KLHL20, Uniprot Q9Y2M5 isoform 1, M303-E605; structure traced from residues 317 to 601; Used for SPR (amine-coupled) and crystallisation; also called untagged KLHL20 Kelch; source: E. coli BL21(DE3)R3-pRARE2, purified (nickel sepharose, size exclusion, anion exchange)
# T1 sequence (looked up): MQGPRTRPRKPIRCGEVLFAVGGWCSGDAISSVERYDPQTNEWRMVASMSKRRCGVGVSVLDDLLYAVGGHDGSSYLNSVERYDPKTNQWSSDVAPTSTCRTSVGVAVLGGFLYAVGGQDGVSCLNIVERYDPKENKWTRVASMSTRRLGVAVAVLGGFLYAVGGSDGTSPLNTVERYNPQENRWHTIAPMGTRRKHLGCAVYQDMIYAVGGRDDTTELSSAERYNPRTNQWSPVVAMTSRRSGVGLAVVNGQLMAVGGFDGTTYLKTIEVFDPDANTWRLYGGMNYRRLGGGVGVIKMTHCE
# B1: 11-residue DAPK1 peptide (crystallization peptide) (peptide)
# peptide: LGLPDLVAKYN
# notes: also called LT1342; source: synthetic peptide, bought: LifeTein
# Target: T1, KLHL20 Kelch domain
# Experiment: crystal structure; KLHL20 Kelch domain 12 mg/mL with 3 mM DAPK1 peptide; sitting drop, 2 M sodium chloride, 0.1 M acetate pH 4.5, 20°C; 1.1 Å
# Settings: both partners purified
binder,measurement,value
B1,binding result,binds
